Data from a protein production outcome set (Wang et al. 2014).

Test: label from the status in PepcDB records

Sequence: MTKAPSLAFLCIQSLKIQLLESDNPIPDLYELPSELLDGIVAHLPALALQKFQTNMPFHCLDSYESGDDCCLITGRKRARNDVLGSSWKLLFKLRWPDFVDRVESPADWQQLYWEKHLQNCVDEAAEVALRPTFSGRICSINVSDNILRYICHEEHIMTCQNCVCKELSFHFQTFGPYLRCLRLLNVLCVTETSELLRTSKLRSLVLRWIRSEKHVEPLCKLLIQSRETLTSLELIHCKLSLSSISAICTSLHEKGIHTTGMQRFCIKTSSIEIDPLAAPSAFVSFLMSVRTLHSLHFGDSNLDRYFARMVFSTLLDSSSNLSSLDLSENNISGWLSTFSCKSVVGSLSSGKSLQSLCKLNLRGNELDRYDAENLAHALLHMPGLESLDLSGNPIEDSGIRSLISYFTKNPDSRLADLNLENCELSCCGVIEFLDTLSMLEKPLKFLSVADNALGSEVAEAVVNSFTISIESLNIMGIGLGPLGFLALGRKLEKVSKKLLSINISKNRGGLETARFLSKLIPLAPKLISIDASYNLMPPEALLMLCDSLRTAKGDLKRLDMTGNSCISHEADHSSLLHEFQHNGEPIFVLPSSSVSHVPYDDDP
- protein production: failed

Sequence: MTKEKSTVPRLRFPGFTDAWKQRKLGEVADFSIKTNSLSRDKLSSYFYEVQNIHYGDILTKYDAILDVCNKELPSIIGSTISDFADALLSEGDIVFADAAEDSTVGKAIEVRNFKGKNVVSGLHTIVARPKVSYAPYYLGYLINSTAYHNQILPLMQGTKVSSISKANLKSTTVVFPTLPEQEAIGSFFSDLDQLITLHQRKLDDVKELKKALLQKMFPKGNGNDFPELRFPEFTDAWKQRKLGEFMKESKILGSKGDIARKLTVRLWGRGVVSKKEIYSGSSATQYYIRKSGQFIYGKLDFLNQAFGIIPPELDGYESTLDSPAFDLLKGINGQFLLEFVSRKEFYYYQGNIANGSRKAKRIHTETFLGMPISLPTLPEQEAIGSFFSDLDQLITLHQRK
- protein production: failed

Sequence: MTKETDDDDNDIPIQEDDEEKNPDQDYQELLDGLLNLSGRQLLMFYWDHELTEAVREGFEVISQKWMKGIDQMWVHWNTSRATVRSESASQFRNSDRGGLGPHRNISSQKSFVQVHEELEELYGRHVSLGEVFMKTHTRADGSFVDAKAEKVAEVYKKACEEKLTEIDDDGPKTSMNSSELSTHRDLNIDDKNEIFLQSAS
- protein production: failed

Sequence: MTKFYKFLISIIILALVCLIFFLAKSNILNLDSLKNLILSSGYFAPLIYIIAFALVPLTFFPDSILAILGGSIFGLGGGFLYTSIGALIGGSISFFISRILGQSFVEKFENDKLKNIQELLKDNGFLMILLLRLIPLFPFDLISYGAGLTKISYKDFALGTLIGTIPGILVFVNLGAQWITFNKTSIYLSVSLLILFIIVSVFLKKIYINKHLAKGN
- protein production: failed

Sequence: MTKGESTMQRIAVLSDAETATGYRLAGATVIEASPEDALRTLEQAITDGGYGLIAVDTGLIPDPATATARIMRGRDLPILLPIPSLRDAFSSDTVDAKAYMGKLVRDTIGFDIKLLEHHHHHH
- protein production: not failed

Sequence: MTKIACVIVTYNRKQLLEEALNSVLIQTESPEYVFVIDNASTDGTEKYINDKFNFDNRQWHYVRCSQNLGGSAGFAQGMRLALQTDCSWISISDDDAIFEPGYFAALRKGIKQYPEQSVFSGSVLLPDGKHDMMHREVITNSATLTVRCVTDETYKHDFSYDIFSFVGILLSRQVIEAIGLPEQDYFIRFDDFEYAVRALKFGRFMNLSAAKVLHKTTYTRSAIAPWKEYYVMRNRIALLIKHRGNNHTVRWYCRRFLLRKLLAILLFSNRRRQARSLVNAYVKGYQDGWHARLGRQLAFLPS
- protein production: failed

Sequence: MTKILAIIGARLNSSRLAGKHLLPLACDAAGNTLPIIGHILRRLKTCSTISSIELATTADEFNQPLINWAQENQLTCVPFEGDVNDLMGRLDRIIQRQQPDYIVYICGDCPLIDPNFIDHALLALKASDKDTITLKEGIISLHEGIGFYTRSGWNRLMAVSDCVMSREHVGYGDKLRPVLTKLYIDDSGNYGKITHRISVDTHADYRFMVEVYRRWYVNNPTETVVSLEWVQEELLKDSALFAINAHVQQKAANKNYAKASIYCHLGPQIGLGHFKRSELIANALQEHLSLGVNIHAYSEAGQRLDSSSKVVWHEDEQALLSALTEDQNPLVLLDFHPNFIDLESFANRLAGLAKHGAKRIGIDKMAPLLDELDWLFIPSFNSPTHHPKISAGWRNYLFSTIPQATKQAQILVLTGGSDALGYGRELPTILDSIGTDWPILWIQGPLAPAPQLTPNSAIVVQQNPDNLKEIIAQSEIILSCYGLSLFESIYGKAATLLLPPQHLCDEAELFALNQERCCLVSDSLEEAKMMLQQLLTEPEQRRSLQNQATRVFESHQGIQALIDDIHHLLGAVN
- protein production: failed

Sequence: MTKKEKGTMMTLAAGLAWGISGISGQYLMSHGVHVNLLTSLRLLITGIFLLSLARSKQKEHLVAAWKQPKFLKQVLLFSIFGLVLNQYAFLRAIHLTNAGTATVLQYMAPILILSIVCILNRQRPTSFEIIAIAMAILGTYMIATHGKLGSLAITPKGLMWGLGSAITYSIYILLPVKLIHEWGSTIVIGSGMFIGGILFSLVTKAWQYPLQINVMSILAYIGIIGIGTIFAYTFFLKGVSIVGAVKGSLLASVEPVSSVFLTVLVLGEIFYPIDLLGMLFIFLAVTLISYKDLIALKKMKRVR
- protein production: failed

Sequence: MTKKQKEILFCDYFEEWVEVYKVGAIAKITLAKYYNAAKQLRDLCPKLFISDFDRREYQRIINVYAETHEKQTVKDFHHHVKACIKDLFHDGLIDKDPTYRVVIKGAEPTRAKLEHHHHHH
- protein production: failed

Sequence: MTKKTGFFKRLKALTLPQKQLFATALCQRMLPNYQLFSEVCEFGDPAVLSTALELLWQSLYDPKLKFNIDVHLQRLEDNTPEPADFEAYGVYPAMDAVVAISTLLGAIQGKIEEDIVNISKLSSSTVANYIEAISDVDLVDEALDDFVFAHEVMEEEKELQNSLLEIIEENPKITAELVKGLRKDIIETGVSNIGISVA
- protein production: not failed

Sequence: MTKMYINTIIEYIDSNIAYSPIVFFSLLILAGLNVPISEDAIVLMGGILSSRKNEYTILIFLGIFWGAYLGDIISFYIGKLMGNKLFKNKKDNNLLDKINYYYGQYGVLTLFIGRFIPFGVRNAIFMSAGMGNMKSNLFIVSDFFATLLSIVVYFTLSFKLGQSFEIIFSKIKIIIFAIFIAVIATTIIIYVIKKNKKVDKNLK
- protein production: failed

Sequence: MTKNAASKARIAYVCTECGTEYSKWQGQCTECGTWNCLSQITLGNAGSVKNPTMKHGNWTGQLDPPKITALKDVQHSEQARISTGIGEFDRVLGGGLVAGAVVLIGGDPGIGKSTLLLQALARMASNLPTLYVTGEESLAQVAGRAVRLDLPLEGLNALAETGIESILQHASSARPRLIVADSVQTLWTEALTAAPGSVSQVRESAAQLVRYAKETGTTVFLVGHVTKEGGIAGPRVLEHMVDAVLYFEGESGSRFRLLRAFKNRFGAVNELGVFAMSEKGLKEVANPSAIFLSGRNSDQPGSCVMVTREGTRPLMVEVQALVDTSPLSNPRRVTVGLEQNRLAMLLAVLHRHGNVLVGDQDVFINIVGGIRVQETAADLPVLLAVRSSLCNRALPEKTIAFGEVGLSGEIRPVPNGEERLREAATHGFKHAIVPKANAPKSAIKDMQIIAVERLDQALEASY
- protein production: failed

Sequence: MTKQIKVGVIGVGQMGQYHAEIYQKLPQVELVAICEFNDERRAEMAEKFQCKAYKDYHELLANTEIEAVIIVLPDNMHRDCVEEAVKHKKHILLEKPLAKELEDGKAMYELTKDYDKVFTVGFLLRFDPRFNMIKQRLDNGELGDIIHLYCRRNSPITGPKRYIGASDLSMHVMIHDIDYINWYMDSEPVKVIAKSRSVLLKEYGMNDVIYAIVTYENGAIACLEACWVLPENSPTIIDDKLELVGTKGVAYVDSCDHGVRFVSEKGVSYPDSRHWYYTNGEVSGDLAEEVMAFINNVANNTKSIITPKEAYDSLRVVDAIERSIAEGKEVSL
- protein production: failed

Sequence: MTKRHVSLPADAKDVRRAFVSGVDERLSAAETPDELATAVTGTLADLRGERDAYEAWRDGDDVRPAAAARLATLDPRNASLESEYYAEKDEAAFARSKPLQWLWRQFDTTPLADNVDVALPFRRMLAGHLFAGVGEDVRLFKGITMTYGHNIELGDNAVVHDGVHLDDRGELVVGARASVSNGAHLYTHDHDVVDQTDVTNYRTEIGADARVTQGALVRAGVRVGENALVGSRSVVQGDVPAHHIAVGSPAESVRVKPGWEAVAAPLDAGGERRQAERRLDDAVPADAAVYDEFQRDRSPPGER
- protein production: failed
